Test results: paper PMC6616571

Test system: wild-type DNA polymerase beta (human)
Experiment: EMSA
Settings: 10 nM DNA, 5 mM MgCl2; approximately 50% of DNA bound at 32 nM enzyme; EMSA: 50 mM Tris-HCl pH 7.5, 100 mM KCl, 5 mM MgCl2, 1 mM DTT, 10% glycerol, 100 ug/ml BSA, room temperature 5 min; 10% native PAGE at 4 C

1-nt gapped 34-bp DNA
K half: 32 nM
